Data: PMC6527180, “A chloride ring is an ancient evolutionary innovation mediating the assembly of the collagen IV scaffold of basement membranes” (The Journal of Biological Chemistry, 2019)

T1: human collagen IV α1-chain NC1 domain, first domain of the single-chain trimer (residues 1438–1666) (human, UniProt P02462 1438-1666)
T1 construct: collagen IV α1-chain NC1 domain, human, residues 1438–1666; Not a free protein: joined by a GTG linker to m5 on the single chain m1; written apart for the domain-domain contacts in the crystal structure; also called α1 NC1 domain; not shown: FLAG, N-terminal, kept
T1 sequence (looked up): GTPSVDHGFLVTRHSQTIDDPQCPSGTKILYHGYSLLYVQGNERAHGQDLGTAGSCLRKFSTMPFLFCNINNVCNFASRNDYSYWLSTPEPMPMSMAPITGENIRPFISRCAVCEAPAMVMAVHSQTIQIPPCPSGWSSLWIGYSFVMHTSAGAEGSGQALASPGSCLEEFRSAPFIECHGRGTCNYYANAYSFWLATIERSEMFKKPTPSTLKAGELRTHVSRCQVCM

T2: bovine α1 NC1 monomer (collagen IV α1-chain NC1 domain from bovine lens basement membrane) (bovine, UniProt Q7SIB2 1441-1669)
T2 construct: collagen IV α1-chain NC1 domain, bovine, monomer from tissue-extracted NC1 hexamer; Used as a mixture with the α2 NC1 monomer; also called tissue-derived α1 NC1 monomer; NC1 monomers; source: purified from bovine lens basement membrane
T2 sequence: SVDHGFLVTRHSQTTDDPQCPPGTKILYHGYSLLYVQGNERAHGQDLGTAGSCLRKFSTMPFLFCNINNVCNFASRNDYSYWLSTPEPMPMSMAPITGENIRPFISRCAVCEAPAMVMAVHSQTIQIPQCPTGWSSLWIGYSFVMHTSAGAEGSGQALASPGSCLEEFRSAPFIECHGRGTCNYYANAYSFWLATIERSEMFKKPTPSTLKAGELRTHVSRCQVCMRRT

B1: human collagen IV α1-chain NC1 domain, third domain of the single-chain trimer (residues 1446–1669) (domain or fragment, UniProt P02462 1446-1669, looked up)
chain: FLVTRHSQTIDDPQCPSGTKILYHGYSLLYVQGNERAHGQDLGTAGSCLRKFSTMPFLFCNINNVCNFASRNDYSYWLSTPEPMPMSMAPITGENIRPFISRCAVCEAPAMVMAVHSQTIQIPPCPSGWSSLWIGYSFVMHTSAGAEGSGQALASPGSCLEEFRSAPFIECHGRGTCNYYANAYSFWLATIERSEMFKKPTPSTLKAGELRTHVSRCQVCMRRT
notes: collagen IV α1-chain NC1 domain, human, residues 1446–1669 (including final C-terminal residues); Not a free protein: joined by an APG linker to m5 on the single chain m1; also called α1 NC1 domain
B2: human collagen IV α2-chain NC1 domain, second domain of the single-chain trimer (residues 1490–1709) (domain or fragment, UniProt P08572 1490-1709, looked up)
chain: YLLVKHSQTDQEPMCPVGMNKLWSGYSLLYFEGQEKAHNQDLGLAGSCLARFSTMPFLYCNPGDVCYYASRNDKSYWLSTTAPLPMMPVAEDEIKPYISRCSVCEAPAIAIAVHSQDVSIPHCPAGWRSLWIGYSFLMHTAAGDEGGGQSLVSPGSCLEDFRATPFIECNGGRGTCHYYANKYSFWLTTIPEQSFQGSPSADTLKAGLIRTHISRCQVCM
notes: collagen IV α2-chain NC1 domain, human, residues 1490–1709; Not a free protein: joined by GTG (N-terminal side, to m4) and APG (C-terminal side, to m6) linkers on the single chain m1; also called α2 NC1 domain
B3: single-chain α121 NC1 trimer (sc121 NC1-trimer) (other, human)
chain: GTPSVDHGFLVTRHSQTIDDPQCPSGTKILYHGYSLLYVQGNERAHGQDLGTAGSCLRKFSTMPFLFCNINNVCNFASRNDYSYWLSTPEPMPMSMAPITGENIRPFISRCAVCEAPAMVMAVHSQTIQIPPCPSGWSSLWIGYSFVMHTSAGAEGSGQALASPGSCLEEFRSAPFIECHGRGTCNYYANAYSFWLATIERSEMFKKPTPSTLKAGELRTHVSRCQVCMGTGYLLVKHSQTDQEPMCPVGMNKLWSGYSLLYFEGQEKAHNQDLGLAGSCLARFSTMPFLYCNPGDVCYYASRNDKSYWLSTTAPLPMMPVAEDEIKPYISRCSVCEAPAIAIAVHSQDVSIPHCPAGWRSLWIGYSFLMHTAAGDEGGGQSLVSPGSCLEDFRATPFIECNGGRGTCHYYANKYSFWLTTIPEQSFQGSPSADTLKAGLIRTHISRCQVCMAPGFLVTRHSQTIDDPQCPSGTKILYHGYSLLYVQGNERAHGQDLGTAGSCLRKFSTMPFLFCNINNVCNFASRNDYSYWLSTPEPMPMSMAPITGENIRPFISRCAVCEAPAMVMAVHSQTIQIPPCPSGWSSLWIGYSFVMHTSAGAEGSGQALASPGSCLEEFRSAPFIECHGRGTCNYYANAYSFWLATIERSEMFKKPTPSTLKAGELRTHVSRCQVCMRRT
notes: collagen IV α1-chain NC1 domain, human, residues 1438–1666; artificial Gly–Thr–Gly linker between α1 and α2; collagen IV α2-chain NC1 domain, human, residues 1490–1709; artificial Ala–Pro–Gly linker between α2 and α1; collagen IV α1-chain NC1 domain, human, residues 1446–1669 (including final C-terminal residues); Vector-derived residues between the FLAG tag and the first α1 residue may be …
B4: bovine α2 NC1 monomer (collagen IV α2-chain NC1 domain from bovine lens basement membrane) (domain or fragment)
chain: ISIGYLLVKHSQTDQEPMCPVGMNKLWSGYSLLYFEGQEKAHNQDLGLAGSCLARFSTMPFLYCNPGDVCYYASRNDKSYWLSTTAPLPMMPVAEEDIRPYISRCSVCEAPAVAIAVHSQDVSIPHCPAGWRSLWIGYSFLMHTAAGDEGGGQSLVSPGSCLEDFRATPFIECNGARGTCHYYANKYSFWLTTIPEQSFQGTPSADTLKAGLIRTHISRCQVCMKNL
notes: collagen IV α2-chain NC1 domain, bovine, monomer from tissue-extracted NC1 hexamer; Used as a mixture with the α1 NC1 monomer; also called tissue-derived α2 NC1 monomer; NC1 monomers; source: purified from bovine lens basement membrane

Columns and labels:
[1] = molecular target: T1, human collagen IV α1-chain NC1 domain, …; experiment: crystal structure; X-ray, 1.9 Å, space group P4_(1)2_(1)2; protein 11 mg/ml in 5 mM Tris-HCl pH 7.5, 150 mM NaCl; hexamer by crystallographic 2-fold; conditions: both partners purified
[2] = molecular target: B1; experiment: as above; conditions: both partners purified
[3] = molecular target: the molecule itself; experiment: as above
[4] = molecular target: T2, bovine α1 NC1 monomer (collagen IV …); experiment: co-IP; bovine α1 and α2 NC1 monomers incubated with sc121 NC1-trimer in the presence of Cl−; formed hexamers immunoprecipitated by the FLAG tag of the recombinant trimer and their composition analysed (Fig. S3); conditions: both partners purified
[5] = molecular target: B4; experiment: as above; conditions: both partners purified
[6] = molecular target: the molecule itself; experiment: SEC; in vitro hexamer assembly: 1 mg/ml in 25 mM Tris acetate pH 7.5, induced with 150 mM NaCl, 24 h at 37 °C unless varied (NaCl, protein, temperature, time); hexamer peak quantified by SEC; second-order fit T+T→H
[7] = molecular target: the molecule itself; experiment: AUC; sedimentation equilibrium, 0.3 mg/ml in Cl−-free TNA (25 mM Tris acetate pH 7.5, 150 mM sodium acetate), 4 °C, 10,000 rpm, 48 h; trimer–to–hexamer self-association model (two single chains to one hexamer), trimer mass fixed to 74 kDa
[8] = molecular target: T2, bovine α1 NC1 monomer (collagen IV …); experiment: SEC; in vitro hexamer assembly: 1 mg/ml in 25 mM Tris acetate pH 7.5, induced with 150 mM NaCl, 24 h at 37 °C unless varied (NaCl, protein, temperature, time); hexamer peak quantified by SEC; second-order fit T+T→H; conditions: both partners purified

## B1
[1]
  binding result: binds

## B2
[1]
  binding result: binds
[2]
  binding result: binds

## B3
[3]
  stoichiometry N: 2
[4]
  binding result: binds
[5]
  binding result: binds
[6]
  kon: 3.45 ± 0.12 M⁻¹ s⁻¹
[7]
  Kd: 37 µM

## B4
[8]
  binding result: binds
